Key:
Assay in all cases: fluorescence polarisation
Rb^P M695I = target: T1, Rb^P M695I (human, UniProt P06400 380-788, M695I)
T1 sequence: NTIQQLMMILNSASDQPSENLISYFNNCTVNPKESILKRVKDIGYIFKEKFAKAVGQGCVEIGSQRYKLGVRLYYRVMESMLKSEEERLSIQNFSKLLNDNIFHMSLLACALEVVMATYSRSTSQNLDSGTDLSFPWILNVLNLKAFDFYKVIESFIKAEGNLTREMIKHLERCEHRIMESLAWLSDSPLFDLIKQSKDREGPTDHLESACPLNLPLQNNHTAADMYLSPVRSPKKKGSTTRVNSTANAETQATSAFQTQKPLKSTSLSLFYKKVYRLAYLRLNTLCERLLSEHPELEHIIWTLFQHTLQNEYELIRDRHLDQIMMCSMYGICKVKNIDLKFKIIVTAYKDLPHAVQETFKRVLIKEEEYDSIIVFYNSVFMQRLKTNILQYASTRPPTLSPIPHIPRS

Rb^P R741C = target: T2, Rb^P R741C (human, UniProt P06400 380-788, R741C)
T2 sequence: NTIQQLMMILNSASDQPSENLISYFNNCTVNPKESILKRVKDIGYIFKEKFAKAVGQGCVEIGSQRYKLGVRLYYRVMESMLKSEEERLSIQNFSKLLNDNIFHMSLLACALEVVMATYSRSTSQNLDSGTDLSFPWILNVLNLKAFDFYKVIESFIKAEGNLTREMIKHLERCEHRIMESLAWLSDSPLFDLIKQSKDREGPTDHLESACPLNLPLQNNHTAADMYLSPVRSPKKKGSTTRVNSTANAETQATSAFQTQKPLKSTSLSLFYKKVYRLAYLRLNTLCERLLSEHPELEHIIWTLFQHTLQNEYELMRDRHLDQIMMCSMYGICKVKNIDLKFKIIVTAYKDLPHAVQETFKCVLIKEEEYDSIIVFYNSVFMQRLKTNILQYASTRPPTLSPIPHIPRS

Rb^P S474R = target: T3, Rb^P S474R (human, UniProt P06400 380-788, S474R)
T3 sequence: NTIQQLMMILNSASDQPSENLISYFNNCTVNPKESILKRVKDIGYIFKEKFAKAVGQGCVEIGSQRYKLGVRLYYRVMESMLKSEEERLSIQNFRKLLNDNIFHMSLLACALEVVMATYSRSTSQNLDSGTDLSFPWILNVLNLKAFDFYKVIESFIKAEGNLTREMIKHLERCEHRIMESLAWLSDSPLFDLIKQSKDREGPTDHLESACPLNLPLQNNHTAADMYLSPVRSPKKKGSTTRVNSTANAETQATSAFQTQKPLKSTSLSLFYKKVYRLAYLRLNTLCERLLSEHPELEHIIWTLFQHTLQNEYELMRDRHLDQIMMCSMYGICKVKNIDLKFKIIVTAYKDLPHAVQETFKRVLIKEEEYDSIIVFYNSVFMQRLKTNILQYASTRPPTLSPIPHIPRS

Rb^P S474I = target: T4, Rb^P S474I (human, UniProt P06400 380-788, S474I)
T4 sequence: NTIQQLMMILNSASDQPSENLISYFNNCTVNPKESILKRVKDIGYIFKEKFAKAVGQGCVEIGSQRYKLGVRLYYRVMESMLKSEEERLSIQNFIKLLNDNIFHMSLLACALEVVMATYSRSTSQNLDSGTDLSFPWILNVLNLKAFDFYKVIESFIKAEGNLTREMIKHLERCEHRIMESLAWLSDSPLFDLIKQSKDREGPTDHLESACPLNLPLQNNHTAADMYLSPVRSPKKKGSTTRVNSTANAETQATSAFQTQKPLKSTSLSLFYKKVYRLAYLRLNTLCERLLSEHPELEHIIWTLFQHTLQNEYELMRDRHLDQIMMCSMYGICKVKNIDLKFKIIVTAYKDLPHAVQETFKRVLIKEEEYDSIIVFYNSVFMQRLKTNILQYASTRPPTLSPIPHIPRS

Rb^P K530I = target: T5, Rb^P K530I (human, UniProt P06400 380-788, K530I)
T5 sequence: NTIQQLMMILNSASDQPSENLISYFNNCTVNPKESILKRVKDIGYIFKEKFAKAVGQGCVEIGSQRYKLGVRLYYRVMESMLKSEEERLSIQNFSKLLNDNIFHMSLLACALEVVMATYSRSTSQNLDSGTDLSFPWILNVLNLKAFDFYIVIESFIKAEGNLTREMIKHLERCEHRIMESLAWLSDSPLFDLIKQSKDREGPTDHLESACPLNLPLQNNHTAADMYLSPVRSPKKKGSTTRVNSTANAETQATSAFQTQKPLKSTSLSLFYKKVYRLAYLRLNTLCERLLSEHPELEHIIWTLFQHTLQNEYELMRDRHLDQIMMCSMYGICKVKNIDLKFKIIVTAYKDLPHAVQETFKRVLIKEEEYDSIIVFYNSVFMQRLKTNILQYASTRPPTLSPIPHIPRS

Measured: binding result

DLYCYEQLN (not fully specified; TMR fluorescent label (TMR-E7^LxCxE)) [TMR-E7^LxCxE (LxCxE peptide of the E7 oncoprotein from HPV, TMR-labeled)]
binds: all assays above
